# Columns and labels:
# Assay in all cases: cell-based or functional assay
# [1] = target: HIV-1 Env of pseudovirus HIV-16055-2.3 (HIV-1)
# [2] = target: HIV-1 Env of pseudovirus Du172.17 (HIV-1)
# [3] = target: HIV-1 Env of pseudovirus CNE30 (HIV-1)
# [4] = target: HIV-1 Env of pseudovirus CNE58 (HIV-1)
# [5] = target: HIV-1 Env of pseudovirus ZM53M.PB12 (HIV-1)
# [6] = target: HIV-1 Env of pseudovirus SC05_8C11_2344 (HIV-1)
# [7] = target: HIV-1 Env of pseudovirus ZM197M.PB7 (HIV-1)
# [8] = target: HIV-1 Env of pseudovirus 62357_14_D3_4589 (HIV-1)
# [9] = target: HIV-1 Env of pseudovirus SC422661.8 (HIV-1)
# [10] = target: HIV-1 Env of pseudovirus Ce1086_B2 (HIV-1)
# [11] = target: HIV-1 Env of pseudovirus ZM233M.PB6 (HIV-1)
# [12] = target: HIV-1 Env of pseudovirus ZM214M.PL15 (HIV-1)
# [13] = target: HIV-1 Env of pseudovirus 1054_07_TC4_1499 (HIV-1)
# [14] = target: HIV-1 Env of pseudovirus Ce0682_E4 (HIV-1)
# [15] = target: HIV-1 Env of pseudovirus CNE20 (HIV-1)
# [16] = target: HIV-1 Env of pseudovirus 0260.v5.c36 (HIV-1)
# [17] = target: HIV-1 Env of pseudovirus Ce704809221_1B3 (HIV-1)
# [18] = target: HIV-1 Env of pseudovirus Ce0393_C3 (HIV-1)
# [19] = target: HIV-1 Env of pseudovirus Ce1176_A3 (HIV-1)
# [20] = target: HIV-1 Env of pseudovirus ZM109F.PB4 (HIV-1)
substance,measurement,setting,value
PG9 (antibody),"IC50, titer in TZM.bl cells",[1],0.021 µg/mL
same,"IC80, titer in TZM.bl cells",[1],0.06 µg/mL
same,"IC50, titer in TZM.bl cells",[2],0.606 µg/mL
same,"IC80, titer in TZM.bl cells",[2],1.6 µg/mL
same,"IC50, titer in TZM.bl cells",[3],> 50 µg/mL
same,"IC80, titer in TZM.bl cells",[3],> 50 µg/mL
same,"IC50, titer in TZM.bl cells",[4],0.038 µg/mL
same,"IC80, titer in TZM.bl cells",[4],0.122 µg/mL
same,"IC50, titer in TZM.bl cells",[5],0.069 µg/mL
same,"IC80, titer in TZM.bl cells",[5],0.221 µg/mL
same,"IC50, titer in TZM.bl cells",[6],0.892 µg/mL
same,"IC80, titer in TZM.bl cells",[6],4.28 µg/mL
same,"IC50, titer in TZM.bl cells",[7],0.899 µg/mL
same,"IC80, titer in TZM.bl cells",[7],4.52 µg/mL
same,"IC50, titer in TZM.bl cells",[8],> 50 µg/mL
same,"IC80, titer in TZM.bl cells",[8],> 50 µg/mL
same,"IC50, titer in TZM.bl cells",[9],0.553 µg/mL
same,"IC80, titer in TZM.bl cells",[9],7.05 µg/mL
same,"IC50, titer in TZM.bl cells",[10],> 50 µg/mL
same,"IC80, titer in TZM.bl cells",[10],> 50 µg/mL
same,"IC50, titer in TZM.bl cells",[11],0.01 µg/mL
same,"IC80, titer in TZM.bl cells",[11],0.026 µg/mL
same,"IC50, titer in TZM.bl cells",[12],> 50 µg/mL
same,"IC80, titer in TZM.bl cells",[12],> 50 µg/mL
same,"IC50, titer in TZM.bl cells",[13],> 50 µg/mL
same,"IC80, titer in TZM.bl cells",[13],> 50 µg/mL
same,"IC50, titer in TZM.bl cells",[14],0.196 µg/mL
same,"IC80, titer in TZM.bl cells",[14],0.698 µg/mL
same,"IC50, titer in TZM.bl cells",[15],0.052 µg/mL
same,"IC80, titer in TZM.bl cells",[15],0.278 µg/mL
same,"IC50, titer in TZM.bl cells",[16],1.69 µg/mL
same,"IC80, titer in TZM.bl cells",[16],9 µg/mL
same,"IC50, titer in TZM.bl cells",[17],0.037 µg/mL
same,"IC80, titer in TZM.bl cells",[17],0.137 µg/mL
same,"IC50, titer in TZM.bl cells",[18],0.02 µg/mL
same,"IC80, titer in TZM.bl cells",[18],0.055 µg/mL
same,"IC50, titer in TZM.bl cells",[19],0.014 µg/mL
same,"IC80, titer in TZM.bl cells",[19],0.044 µg/mL
same,"IC50, titer in TZM.bl cells",[20],0.256 µg/mL
same,"IC80, titer in TZM.bl cells",[20],6.69 µg/mL
N49P9 (antibody),IC50,[1],0.077 µg/mL
same,IC80,[1],0.274 µg/mL
same,MPI,[1],100
same,IC50,[2],0.023 µg/mL
same,IC80,[2],0.178 µg/mL
same,MPI,[2],100
same,IC50,[3],0.259 µg/mL
same,IC80,[3],0.693 µg/mL
same,MPI,[3],100
same,IC50,[4],0.03 µg/mL
same,IC80,[4],0.081 µg/mL
same,MPI,[4],100
same,IC50,[5],0.362 µg/mL
same,IC80,[5],1.14 µg/mL
same,MPI,[5],100
same,IC50,[6],0.473 µg/mL
same,IC80,[6],1.61 µg/mL
same,MPI,[6],100
same,IC50,[7],0.083 µg/mL
same,IC80,[7],0.339 µg/mL
same,MPI,[7],100
same,IC50,[8],0.074 µg/mL
same,IC80,[8],0.307 µg/mL
same,MPI,[8],100
same,IC50,[9],0.241 µg/mL
same,IC80,[9],0.691 µg/mL
same,MPI,[9],100
same,IC50,[10],0.341 µg/mL
same,IC80,[10],1.69 µg/mL
same,MPI,[10],97
same,IC50,[11],> 50 µg/mL
same,IC80,[11],> 50 µg/mL
same,MPI,[11],48
same,IC50,[12],0.477 µg/mL
same,IC80,[12],1.99 µg/mL
same,MPI,[12],100
same,IC50,[13],0.885 µg/mL
same,IC80,[13],2.44 µg/mL
same,MPI,[13],100
same,IC50,[14],0.049 µg/mL
same,IC80,[14],0.185 µg/mL
same,MPI,[14],100
same,IC50,[15],0.465 µg/mL
same,IC80,[15],2.43 µg/mL
same,MPI,[15],97
same,IC50,[17],0.133 µg/mL
same,IC80,[17],0.605 µg/mL
same,MPI,[17],100
same,IC50,[18],0.189 µg/mL
same,IC80,[18],0.595 µg/mL
same,MPI,[18],100
same,IC50,[19],0.258 µg/mL
same,IC80,[19],0.919 µg/mL
same,MPI,[19],100
same,IC50,[20],0.075 µg/mL
same,IC80,[20],0.349 µg/mL
same,MPI,[20],99
PG16 (antibody),"IC50, titer in TZM.bl cells",[1],0.17 µg/mL
same,"IC80, titer in TZM.bl cells",[1],> 0.25 µg/mL
same,"IC50, titer in TZM.bl cells",[2],0.033 µg/mL
same,"IC80, titer in TZM.bl cells",[2],0.213 µg/mL
same,"IC50, titer in TZM.bl cells",[3],> 50 µg/mL
same,"IC80, titer in TZM.bl cells",[3],> 50 µg/mL
same,"IC50, titer in TZM.bl cells",[4],0.044 µg/mL
same,"IC80, titer in TZM.bl cells",[4],0.25 µg/mL
same,"IC50, titer in TZM.bl cells",[5],0.007 µg/mL
same,"IC80, titer in TZM.bl cells",[5],0.051 µg/mL
same,"IC50, titer in TZM.bl cells",[6],0.07 µg/mL
same,"IC80, titer in TZM.bl cells",[6],1.62 µg/mL
same,"IC50, titer in TZM.bl cells",[7],1.5 µg/mL
same,"IC80, titer in TZM.bl cells",[7],22.8 µg/mL
same,"IC50, titer in TZM.bl cells",[8],> 50 µg/mL
same,"IC80, titer in TZM.bl cells",[8],> 50 µg/mL
same,"IC50, titer in TZM.bl cells",[9],0.858 µg/mL
same,"IC80, titer in TZM.bl cells",[9],> 50 µg/mL
same,"IC50, titer in TZM.bl cells",[10],> 50 µg/mL
same,"IC80, titer in TZM.bl cells",[10],> 50 µg/mL
same,"IC50, titer in TZM.bl cells",[11],0.002 µg/mL
same,"IC80, titer in TZM.bl cells",[11],0.006 µg/mL
same,"IC50, titer in TZM.bl cells",[12],> 50 µg/mL
same,"IC80, titer in TZM.bl cells",[12],> 50 µg/mL
same,"IC50, titer in TZM.bl cells",[13],> 50 µg/mL
same,"IC80, titer in TZM.bl cells",[13],> 50 µg/mL
same,"IC50, titer in TZM.bl cells",[14],0.026 µg/mL
same,"IC80, titer in TZM.bl cells",[14],0.202 µg/mL
same,"IC50, titer in TZM.bl cells",[15],3.63 µg/mL
same,"IC80, titer in TZM.bl cells",[15],47.2 µg/mL
same,"IC50, titer in TZM.bl cells",[16],1.54 µg/mL
same,"IC80, titer in TZM.bl cells",[16],36.1 µg/mL
same,"IC50, titer in TZM.bl cells",[17],0.021 µg/mL
same,"IC80, titer in TZM.bl cells",[17],0.116 µg/mL
same,"IC50, titer in TZM.bl cells",[18],0.002 µg/mL
same,"IC80, titer in TZM.bl cells",[18],0.006 µg/mL
same,"IC50, titer in TZM.bl cells",[19],0.003 µg/mL
same,"IC80, titer in TZM.bl cells",[19],0.011 µg/mL
same,"IC50, titer in TZM.bl cells",[20],7.03 µg/mL
same,"IC80, titer in TZM.bl cells",[20],> 50 µg/mL
